Assay: soluble on expression in E. coli; label from the status in PepcDB or PDB records
In the case of “DKFFIWGKRIDYNALKTTLIKKAQDENLLHFTPKISLVEDGFIRSISLGSDLTRPFSLIVDDKGLYIDPNKASKLEELLQNEIFDENMLNRAKNIIKILLENRFSKYNGLKHEDLKINAKIGQKIILIPAQVEDDASMILGGFGLSTLDLLKEVRAKNQDAYIIFKPHPDVLSGNRVGLKDETLILEFCDEIVKDCSIDSAIKIADEIHTITSTSGFDALLRAKKVFTYGMPFYAGWGLTKDKYRCERRIRKLSLEELVAGALIIYPRY”, the “soluble on expression in E. coli” value is reported as “not soluble”.
For “DNSSFDSLSPEPKSRFAMLDDVKILANGLLQLGHGLKDFVHKTKGQINDIFQKLNIFDQSFYDLSLQTSEIKEEEKELRRTTYKLQVKNEEVKNMSLELNSKLESLLEEKILLQQKVKYLEEQLTNLIQNQPETPEHPEVTSLKTFVEKQDNSIKDLLQTVEDQYKQLNQQHSQIKEIENQLRRTSIQEPTEISLSSKPRAPRTTPFLQLNEIRNVKHDGIPAECTTIYNRGEHTSGMYAIRPSNSQVFHVYCDVISGSPWTLIQHRIDGSQNFNETWENYKYGFGRLDGEFWLGLEKIYSIVKQSNYVLRIELEDWKDNKHYIEYSFYLGNHETNYTLHLVAITGNVPNAIPENKDLVFSTWDHKAKGHFNCPEGYSGGWWWHDECGENNLNGKYNKPRAKSKPERRRGLSWKSQNGRLYSIKSTKMLIHPTDSESFE”, the “soluble on expression in E. coli” value was “not soluble”.
For “DPVFLDIFKSDKEDYEQRLRGAIREELNAFWQAKQPMIGLYLGEAMVGVACINSPDETLASDRFWHWRLKMLLNAGYFSTKQMMQKEHTVLAAVPLKIFHFLSFIAVHPLHQQHGFGHYLMAAVNTVLDEHPDSEGVAVYATSGKFKEFFKQVDYHTVKEVTVGNV”, the “soluble on expression in E. coli” value was “not soluble”.
For “DQAGKSPNAVRYHGGDEIILQGFHWNVVREAPNDWYNILRQQAATIAADGFSAIWMPVPWRDFSSWSDGSKSGGGEGYFWHDFNKNGRYGSDAQLRQAASALGGAGVKVLYDVVPNHMNRGYPDKEINLPAGQGFWRNDCADPGNYPNDCDDGDRFIGGDADLNTGHPQVYGMFRDEFTNLRSQYGAGGFRFDFVRGYAPERVNSWMTDSADNSFCVGELWKGPSEYPNWDWRNTASWQQIIKDWSDRAKCPVFDFALKERMQNGSIADWKHGLNGNPDPRWREVAVTFVDNHDTGYSPGQNGGQHHWALQDGLIRQAYAYILTSPGTPVVYWDHMYDWGYGDFIRQLIQVRRAAGVRADSAISFHSGYSGLVATVSGSQQTLVVALNSDLGNPGQVASGSFSEAVNASNGQVRVWRSGTGSGGGEPGALVSVSFRCDNGATQMGDSVYAVGNVSQLGNWSPAAALRLTDTSGYPTWKGSIALPAGQNEEWKCLIRNEANATQVRQWQGGANNSLTPSEGATTVGRL”, the “soluble on expression in E. coli” value was “soluble”.
For “DRFVYTCNECKHHVETRWHCTVCEDYDLCITCYNTKNHDHKM”, the “soluble on expression in E. coli” value was “not soluble”.
For “DSNALWMPYVNGRIRVIVMRNGGGGIFRFIPGPDSLKELETCFETPLEVPVREMAGAYGWRYMKAVSAEELETVLPSFFASGDRAVLLEVETPRFENAPVLKSYFTYISGESYPVNR”, the “soluble on expression in E. coli” value was “not soluble”.
For “DVAVRTLSDVPSAAPQNLSLEVRNSKSIMIHWQPPAPATQNGQITGYKIRYRKASRKSDVTETLVSGTQLSQLIEGLDRGTEYNFRVAALTINGTGPATDWLSAETFESDLDETRVPEV”, the “soluble on expression in E. coli” value was “soluble”.
In the case of “DVKIEKLKDNLYVYTTYNTFNGTKYAANAVYLVTDKGVVVIDCPWGEDKFKSFTDEIYKKHGKKVIMNIATHSHDDRAGGLEYFGKIGAKTYSTKMTDSILAKENKPRAQYTFDNNKSFKVGKSEFQVYYPGKGHTADNVVVWFPKEKVLVGGCIIKSADSKDLGYIGEAYVNDWTQSVHNIQQKFSGAQYVVAGHDDWKDQRSIQHTLDLINEYQQKQKASN”, the “soluble on expression in E. coli” value is reported as “soluble”.
For “DVSQKIKDIDDQIQQLLLKQRHLLSKMASSMKSLKNCQKELISTQILQFEAQNMDVSMNDVIGFFNEREADLK”, the “soluble on expression in E. coli” value was “soluble”.
In the case of “DYKDDDDKLAAAQYPVVNTNYGKIRGLRTPLPNEILGPVEQYLGVPYASPPTGERRFQPPEPPSSWTGIRNTTQFAAVCPQHLDERSLLHDMLPIWFTANLDTLMTYVQDQNEDCLYLNIYVPTEDDIHDQNSKKPVMVYIHGGSYMEGTGNMIDGSILASYGNVIVITINYRLGILGFLSTGDQAAKGNYGLLDQIQALRWIEENVGAFGGDPKRVTIFGSGAGASCVSLLTLSHYSEGLFQKAIIQSGTALSSWAVNYQPAKYTRILADKVGCNMLDTTDMVECLRNKNYKELIQQTITPATYHIAFGPVIDGDVIPDDPQILMEQGEFLNYDIMLGVNQGEGLKFVDGIVDNEDGVTPNDFDFSVSNFVDNLYGYPEGKDTLRETIKFMYTDWADKENPETRRKTLVALFTDHQWVAPAVATADLHAQYGSPTYFYAFYHHCQSEMKPSWADSAHGDEVPYVFGIPMIGPTELFSCNFSKNDVMLSAVVMTYWTNFAKTGDPNQPVPQDTKFIHTKPNRFEEVAWSRYNPKDQLYLHIGLKPRVRDHYRATKVAFWLELVPHLHNLNEIFQYVSTTTKVPPPDMT”, the “soluble on expression in E. coli” value is reported as “soluble”.
For “DYKLFITEGYEVGRVNGLAVIGESAGIVLPIIAEVTPSMSKSEGRVIATGRLQEIAREAVMNVSAIIKKYTGRDISNMDVHIQFVGTYEGVAGDSASISIATAVISAIEGIPVDQSVAMTGSLSVKGEVLPVGGVTQKIEAAIQAGLKKVIIPKDNIDDVLLDAEHEGKIEVIPVSRINEVLEHVLEDGKKKNRLMSKFKELELAAV”, the “soluble on expression in E. coli” value was “soluble”.
With “EAGAPCGRISFALRYLYGSDQLVVRILQALDLPAKDSNGFSDPYVKIYLLPDRKKKFQTKVHRKTLNPIFNETFQFSVPLAELAQRKLHFSVYDFDRFSRHDLIGQVVLDNLLELAEQPPDRPLWRDILEGGSEKADLGELNFSLCYLPTAGLLTVTIIKASNLKAMDLTGFSDPYVKASLISEGRRLKKRKTSIKKNTLNPTYNEALVFDVAPESVENVGLSIAVVDYDCIGHNEVIGVCRVGPEAADPHGREHWAEMLANPRKPVEHWHQLVEEKTLSSFTKGGKGLSEKENSE” the “soluble on expression in E. coli” value was “soluble”.
For “EAPFTLKVNTLPLNFDKAEHHRKFQIHINVSYIGERPNSNMVIVDVKMVSGFIPVKPSVKKLQDQSNIQRTEVNTNHVLIYIEKLTNQTMGFSFAVEQDIPVKNLKPAPVKVYDYYETDEFAIEEYSAPFSSDS”, the “soluble on expression in E. coli” value was “soluble”.
For “EDAWEANDPLGSLSIRYLEAAQDSQWHRELLLAGTDINHHVFRDLVTPRNPRSRFSFAMYLKEQGRMFDFGLLGRPASRHEWSDYLAWVSRQVDSQTCFNTPVTGIDPVLRNGRLHEVRVCTPQTCFTTRNVVLSSGSAPRIPHAFEALLGPTLFHTSQFLTRLQAFGEYLPKRWLVLGSGQSASESVLELVSRDHAIEV”, the “soluble on expression in E. coli” value was “not soluble”.
In the case of “EEKVVAEQQADGTWLMDGWISIRKASNLLEHDLVDEAERYSTLGGYLLWQFGYIPAAGEQITVDGLIFEIVSVNKHNIGKVRVHRTQ”, the “soluble on expression in E. coli” value is reported as “soluble”.
With “EEPEHSYDNSWGMGYGSSNSRSYGSQNSRSYGSPRTPKLPKHSNKPAIALNVGDRVNHEKYGLGTVTKVDKMAPADSVTIDFGSSGTVRLMLIGSVPMEKL” the “soluble on expression in E. coli” value was “not soluble”.
With “EEYSKAELVVREYVASEGREFFISFEIPEYDALVGFVRLRFPKEPFIEVLRDAALIRELHVYGRAVPIGQSSDAFQHRGFGERLLKEAEEIAKEEYDRIAVISGVGVRDYYRKLGYRLRQGYMVKKL” the “soluble on expression in E. coli” value was “not soluble”.
With “EFGEPAPANAESSSVAALKIGKVGNFGDCTGTLVADQWVLTARHCLESVNNEGTQARIGGKVYDADSWALSPVSDAGLLHLTEKVTDATPAKVSRDIPTPGQTGTLYGWSSSSSLARSGQLPMAKMVVKELLGGGPSQGTPSEGAPGGATPGEVAPGGAAPSETVPSESQAESIPAGTESIPADGAMMPMIQSAILDAHSVSGAGMQGGDSGGPFFVDGKLAGLATAGTANGDPDLPSPSAAITTLAGTADWIDGVTSGRDTKSVLTAENTPAPPKTIQTSADH” the “soluble on expression in E. coli” value was “not soluble”.
For “EFILVQADTPSSPSIDQVEPYSSTAQVQFDEPEATGGVPILKYKAEWRAVGEEVWHSKWYDAKEASMEGIVTIVGLKPETTYAVRLAALNGKGLGEISAASEFKTQPVREPSAPKLEGQMGEDGNSIKVNLIKQDDGGSPIRHYLVRYRALSSEWKPEIRLPSGSDHVMLKSLDWNAEYEVYVVAENQQGKSKAAHFVFRTSAQPTAIPANGSPTSGL”, the “soluble on expression in E. coli” value was “soluble”.
With “EGSARFMPELTARAGFAFIPSIAIIKNKVFEPDDPQELEAYQSVLGYTPGIRGNLKVSSFSGHMLADYHPFKNAFRVTAGLYFNRPQINAKVQLINQNTGQSIMNDQSTLNPNNMPVITIKDKDNPADKVSIQPSSTAEVEASVHLGRTVQPYIGIGYGFAVPVSRVSFFADLGMLFSGKAQISSPNVIAGDPNLLIDFSEDAQEAVYSTQILPVLNIGVSIRLF” the “soluble on expression in E. coli” value was “not soluble”.
For “EHEHNYHPNAVAAGLRAGRTRSIGLVIPDLENTSYTRIANYLERQARQRGYQLLIACSEDQPDNEMRCIEHLLQRQVDAIIVSTSLPPEHPFYQRWANDPFPIVALDRALDREHFTSVVGADQDDAEMLAEELRKFPAETVLYLGALPELSVSFLREQGFRTAWKDDPREVHFLYANSYEREAAAQLFEKWLETHPMPQALFTTSFALLQGVMDVTLRRDGKLPSDLAIATFGDNELLDFLQCPVLAVAQRHRDVAERVLEIVLASLDEPRKPKPGLTRIKRNLYRRGVLSRS”, the “soluble on expression in E. coli” value was “soluble”.
For “EHGWCGHLCPLGAAYGVIGRKSLLRVTAVRREDCTKCMDCFYVCPEPEVLRQPLKEGDRRVMVQNCISCGRCLDVCPEQVFEFKNRLNVKNID”, the “soluble on expression in E. coli” value was “not soluble”.
In the case of “EITPLIFQKQTTEPVENLRTYTALEMEGRDIYIREGCNVCHSQMIRPFRAETERYGHYSVAGESVWEHPFLWGSKRTGPDLARVGQRYSDEWHRVHLINPRDVVPESNMPGFPWLEENVLDGELTSKKIAIFRDNFGVPYTEEDVKNASEEVKGKTEMDALIAYLQSLGH”, the “soluble on expression in E. coli” value is reported as “not soluble”.
In the case of “EKATENSPLVMIEYSSPNTNKPLHLGHVRNNLLGNALANVMAANGNKVVKTNIVNDRGIHICKSMLAWLKYGNGETPESSGKKGDHLIGDYYVAFDKHYKAEVKELTAQYQAEGLNEEEAKAKAEANSPLMLEAREMLRKWEANDPEIRALWKKMNDWVYAGFDETYKMMGVSFDKIYYESNTYLEGKEKVMEGLEKGFFYRKEDNSVWADLTAEGLDHKLLLRGDGTSVYMTQDIGTAKLRFQDYPINKMIYVVGNEQNYHFQVLSILLDKLGFEWGKGLVHFSYGMVELPEGKMKSREGTVVDADDLMEAMIETAKETSAELGKLDGLTQEEADNIARIVGLGALKYFILKVDARKNMTFNPKESIDFN”, the “soluble on expression in E. coli” value is reported as “not soluble”.
In the case of “EKKYIVGFKQTMSAMSSAKKKDVISQKGGKVEKQFKYVNAAAATLDEKAVKELKKDPSVAYVEEDHIAHEY”, the “soluble on expression in E. coli” value is reported as “soluble”.
For “ELVMTQSPLSLPVSLGDQASISCRPSQSLVHSNGNTYLHWYLQKPGQSPKLLIYRVSNRFSGVPDRFSGSGSGTAFTLKISRVEAEDLGVYFCSQGTHVPYTFGGGTKLELKRADAAPTVSIFPPSSEQLTSGGASVVCFLNNFYPKDINVKWKIDGSERQNGVLNSWTDQDSKDSTYSMSSTLTLTKDEYERHNSYTCEATHKTSTSPIVKSFNRNEC”, the “soluble on expression in E. coli” value was “soluble”.
With “ELVVTQESALTTSPGETVTLTCRSSSGAVTTSNYATWVQEKPDHLFTGLIGGTNKRAPGVPARFSGSLIGDRAALTITGAQTEDEAIYFCALWNSNHLVFGGGTKLEIKRTVAAPSVFIFPPSDEQLKSGTASVVCLLNNFYPREAKVQWKVDNALQSGNSQESVTEQDSKDSTYSLSSTLTLSKADYEKHKVYACEVTHQGLSSPVTKSFNRGEC” the “soluble on expression in E. coli” value was “soluble”.
With “EQAEAQLAELDLLASMFPGENELIVNDQLAVAELKDCIEKKTMEGRSSKVYFTINMNLDVSDEKMAMFSLACILPFKYPAVLPEITVRSVLLSRSQQTQLNTDLTAFLQKHCHGDVCILNATEWVREHASGYVSRDTSS” the “soluble on expression in E. coli” value was “soluble”.

— the DeepSol protein solubility set
